Data from a protein production outcome set (Wang et al. 2014).

Test: label from the status in PepcDB records

## MEPITQAFAQQFSREWIDAWNAHDLDAILSHYADGFEMSSPMIVQIAGEPSGRLRGKEQVGAYWREALRMIPDLHFEWIATLAGVDSVAIHYRGAKGRLALEVFHFGPDRRVVKALAHYAG
  protein production: not failed

## MEPKDTTTNDAFKGFTNTACPFLPCHKGVKREFNCLFCYCPLIAYECPGPYQVYTDKNGLTRKDCTNCTLPHDGYLASWNFIQKWLERPVIWSGAAQTTPPTRRPGRAPGDGDEELEHHHHHH
  protein production: not failed

## MEPLGNRRPCSVCITKNRNCPRFCEYAEYFPYELQSQYESANELFGTPNIITMMQHAPEEKKQMLATSIIMEGNAWTEDPISGGFGMIQKLMWKIMLHKAYLRELQEKIKEEKEKKPASSLY
  protein production: failed

## MEPLTALAQSLGLAFASGISAYAAAAFVGLAGHLGWIGPLPGALGVLTDPWVFGTAGALALVEALAMLVPGIATAWEAIHTAIRPFAAAALAVLATWGEPRLAVVAALLGGALGLATHATKLGLRATIDTSPEPVTNAAATTGELGVVAALAWAIWAHPWIALAAALVLLTALLYVVRALWRTVARAIAALFSPPTAPGS
  protein production: failed

## MEPQEEFITTEEVEQEIVPTVEVEQDVPVDIEGENDDDDEMMNDDEEALEVDMSNNSLTYFDKHTDSVFAIGHHPNLPLVCTGGGDNLAHLWTSHSQPPKFAGTLTGYGESVISCSFTSEGGFLVTADMSGKVLVHMGQKGGAQWKLASQMQEVEEIVWLKTHPTIARTFAFGATDGSVWCYQINEQDGSLEQLMSGFVHQQDCSMGEFINTDKGENTLELVTCSLDSTIVAWNCFTGQQLFKITQAEIKGLEAPWISLSLAPETLTKGNSGVVACGSNNGLLAVINCNNGGAILHLSTVIELKPEQDELDASIESISWSSKFSLMAIGLVCGEILLYDTSAWRVRHKFVLEDSVTKLMFDNDDLFASCINGKVYQFNARTGQEKFVCVGHNMGVLDFILLHPVANTGTEQKRKVITAGDEGVSLVFEVPN
  protein production: failed

## MEPSGGEQEPGAVRFLDLPWEDVLLPHVLNRVPLRQLLRLQRVSRAFRSLVQLHLAGLRRFDAAQVGPQIPRAALARLLRDAEGLQELALAPCHEWLSDEDLVPVLARNPQLRSVALGGCGQLSRRALGALAEGCPRLQRLSLAHCDWVDGLALRGLADRCPALEELDLTACRQLKDEAIVYLAQRRGAGLRSLSLAVNANVGDAAVQELARNCPELHHLDLTGCLRVGSDGVRTLAEYCPVLRSLRVRHCHHVAESSLSRLRKRGVDIDVEPPLHQALVLLQDMAGFAPFVNLQV
  protein production: not failed

## MEPTGLMVAAPTASLPEAIGGERNWDYRFTWIRDTAYVIEALSSIGYKYEATEFLYDMMDMITRDNRIRTIYSIDDSNDLEERIIDYEGYRGSRPVRIGNKAVDQLQIDQYGSIVRAIHSMAKAGGIVNSYLWDFVEQVMAKIEYLWKYPDSSIWEFRTEPKQYVYSKVMSWAAFDSAISMAKDLGLSAPIKQWKSIQDEIKKEVLEKGFDTDTNSFVQYYGSKNIDAALLRLPILGFIPANDEKFLGTLSRIEKELMVDGYLFKRYREDDGLKGDEGSFLMLTFWYIEDLILMKRLKKAREVLESVLEKANHLGLYSEEIDEKSGDFLGNFPQALSHLGVIRVAPKLEEALLLEHHHHHH
  protein production: failed

## MEQGAATADKEDFNARGKPTLFQLSFPLLLHSLLSFFVNLADTAIISAYSAEAAAAVAVAKQVMMIAFELSGLVGIGAVIVISRHLGRGEVEAARQVVAVALLTNTLVGLALGLSLMVAGPLVLEQLAGSTSLNDEAGLYLNIVAVGMVFNGFIAAGLACLRAFGHSRLILAFGVGVSAFYLLAEWVLILGVGPLPGMGVKGAALGTFSIRVMTTAILTPVLMWKLGLRFSFSDTVARFATARRMIAIALPSVTDYIAYSFYQIILLGLVARFGVEAVLGRTYTMLAMAFLIVVVMAISQSNEVLIGYRFGERRLEAATSQALRSASLAAAATTSIATLIWLASVPYIRLFTDNPAVIELCGSLLFLTIFIQPGFAFNTILFQSLRAVGDVRWPVFVSLTVTWGLGLSTAWFFCLFLNLGVTGVWLSLIIEETVKGSLFLHRWLSRGVRHEAG
  protein production: failed

## MEQQHPTIHTLKIETEFFKAVKERRKTFEIRKNDRNFQVGDILILEEYMNGMYLDDECEAEVIYITDYAQREGYVVLGIELH
  protein production: not failed

## MEQRLLNANERSTYGKNAAVKMRKAGRIPAVMYDRHGKSVPIDVDEREFMKLFKLVTESTIVTLNAAGKDYEVFIKDFQHDIVSDKIKHIDFYEVERGKTLRTKVKIRLEGSPEGVRHGGILETGITELELECLPKDLPARIIVDVSALDVNQSLHVRDIKLPEAVTVLTSDDITVAAIKFAAAESTTPAATEGEETEAAAAAPEPAAEDK
  protein production: failed

## MEQTHLKYEQLKAILREMGSVLVAFSGGVDSTFLLRVAHGLLGDKAVAFTATSPTYPESEFREAVGLARSMGARQVVVESNELEIPGFAFNPRNRCYHCKKELFGLCGRTAAELGLAWVADGSNCDDLDDYRPGRAAAGELGVRSPLVEAGLTKADIRELSRELGLPTWDKQAFACLSSRFPYGTEITPERLRMVGACEEFLRENGFRVYRVRFHGDTARIETAPEEIPRLFDPSLRLRIAAFFREAGFAHVAVDLEGYRTGSMNTDAG
  protein production: failed

## MEQTQQNHFTALFYKNVLLGILSMAAQSIFILADTFFIANGIGTEALAGLNIVLPLVNIINGLGWMFGVGGATLFSTTVAQKEIKKANQYFSLTIGLVFVIGRLFTLVSLIFSDQIIRGLQGTGVLFGLAKEYYMIYLSCSLLFILNNCLITFLRNDHNPRLATIAFVSGGIVNIILDYVFIYQFGWGMAGAAIATVMSPLTSLILITLHKWSPQRVLRFEKFKVKFQDVREIMSIGFSSFLNEFSSAFVMFLFNIVLLNLVGHVAISAYAIVANLNIIVIAIFTGIGQGAQPLLSRYYGLGETKVLRKFVKLSFITYLVAGFLFFLISQVFTGQIIEVFNSEGNDQLAQIARTAIRLYAISFLFTGLNFMGIYYFSAVRKPKMALMISSLRGFFLIVPVLFILVKLLGLTGVWLAMPVVEFVTFGLMLVGYLAYRNYLKKREAVT
  protein production: failed

## MEQWDHFHNQQEDTDSCSESVKFDARSMTALLPPNPKNSPSLQEKLKSFKAALIALYLLVFAVLIPLIGIVAAQLLKWETKNCSVSSTNANDITQSLTGKGNDSEEEMRFQEVFMEHMSNMEKRIQHILDMEANLMDTEHFQNFSMTTDQRFNDILLQLSTLFSSVQGHGNAIDEISKSLISLNTTLLDLQLNIENLNGKIQENTFKQQEEISKLEERVYNVSAEIMAMKEEQVHLEQEIKGEVKVLNNITNDLRLKDWEHSQTLRNITLIQGPPGPPGEKGDRGPTGESGPRGFPGPIGPPGLKGDRGAIGFPGSRGLPGYAGRPGNSGPKGQKGEKGSGNTLTPFTKVRLVGGSGPHEGRVEILHSGQWGTICDDRWEVRVGQVVCRSLGYPGVQAVHKAAHFGQGTGPIWLNEVFCFGRESSIEECKIRQWGTRACSHSEDAGVTCTL
  protein production: failed

## MEQYSEACIEACIDCMKACNHCFTKCLEESVQHHLSGCIRLDRECADICALAVKAMQTDSPFMKEICALCADICEACGTECGKHDHDHCQACAKACFTCAEQCRSMAALEHHHHHH
  protein production: failed

## MERAVPLAVPLGQTEVFQALQRLHMTIFSQSVSPCGKFLAAGNNYGQIAIFSLSSALSSEAKEESKKPVVTFQAHDGPVYSMVSTDRHLLSAGDGEVKAWLWAEMLKKGCKELWRRQPPYRTSLEVPEINALLLVPKENSLILAGGDCQLHTMDLETGTFTRVLRGHTDYIHCLALRERSPEVLSGGEDGAVRLWDLRTAKEVQTIEVYKHEECSRPHNGRWIGCLATDSDWMVCGGGPALTLWHLRSSTPTTIFPIRAPQKHVTFYQDLILSAGQGRCVNQWQLSGELKAQVPGSSPGLLSLSLNQQPAAPECKVLTAAGNSCRVDVFTNLGYRAFSLSF
  protein production: failed

## MERAVVQRARPLARRPLVTLLTAAALAASGLTALTSAARAADADLARNGGFESALDGWTCTAGTTVTSPVHGGTSALKATPAGADNARCSQTVSVKPDSPYTLSGYVRGTYVYLGASGTGTTDVSTWAQSAPDWQQLTTTFRTGPSTTRVTIYTHGWYGTGAYHADDISLTGPGGETQQPPAVPGGLKTGSVTSSAVALSWSPVPGATGYAVYRDGAKVSTVTGTSTTVTGLTPSTAYSFQVTAVNDAGESARSATVTATTAQRPDDGGGSSDLPAHALVGYLHASFANGSGYTRMADVPDSWDVIDLAFGEPTSVTSGDIRFERCPVAECPNVESDAEFKAAIKAKQAAGKKVLISIGGQNGQVQLTSTAARDKFVSSVSAIIDEYGLDGLDIDFEGHSLSLNADDTDFKNPKTPVIVNLVSAVKTLKAKYGDGFVLTMAPETFFVQLGYQYYGTGKWGGQDPRAGAYLPVIHALRDDLTLLHVQDYNSGSIMGLDNQYHSMGGADFHIAMTDMLLTGFPVAGDANNVFPPLRPDQVAIGMPASTQAGNGHVSPAEVTKALNCLTKKTDCGSYATHGTWPDLRGLMTWSINWDRYSNWEFQKNFDAYFG
  protein production: failed

## MERIEAGMSVMTLKKQTYRVIAVINQGQELLVRAHEPETADIEIIPVTTVVQVTEQNSTGDAAVALDTVTVVGERYVDDIVATLTTLRVGMAVLLQRESGNQYDDNAISVWTLQHAKLGYIARYQNQPYATLMDQGQRLYGIVTVLDQQKQHLELMLWRTTAVPSPIEALQIRQRLAKPRTNLGAVPTHSLQTPLGTIVMMCNGHPIKYQQVPLSPWLTPADELHVTKRYLLTPDWSQVPPDSLITCQVTAKADVVQRWQNEHISAAVLTNASSFYVVGISAQTKTGLNDNLVDDAAQPAVIYRVGQVSAHMQAGFMVSWAPFGDPRVQPALKLALHFSSQPLVPYHPVTPSRTNATFTQQELAALLVSALPNYQGGQRLEPSVTTITVEKLRQTLGDQTYHALANYQRHVQLVAGSTEGVNETLLQALIHAVTYHELTTMHYYQPTVGMVDQVIYPIQLFSTTTKDEDDAQLVGCLALYNYETFEIQQVPLTAIARIAIIADPEHPQTTPETESPDWLRIFLHGWNDDFLEHHHHHH
  protein production: not failed

## MERIETIPTDKEHLSQDEVIRLASTPCSAPALKRAFLFSCLTALRKSDIKKLTWEEIQPYGSDGVMYVTTRMQKTKDIVHNPISEEALELIGYSPDKRGKVFPDFKDSMTQAPLKNWLKDAGITKHISYHCSRHSFACLQLDAGTSIAVVQRYLGHKNVATTEVYAKISDAQKRASVGLEHHHHHH
  protein production: not failed

## MERKLGISLYPEHSTKEKDMAYISAAARHGFSRIFTCLLSVNRPKEEIVAEFKEIINHAKDNNMEVILDVAPAVFDQLGISYSDLSFFAELGADGIRLDVGFDGLTEAKMTNNPYGLKIELNVSNDIAYLENILSHQANKSALIGCHNFYPQKFTGLPYDYFIRCSERFKKHGIRSAAFITSHVANIGPWDINDGLCTLEEHRNLPIEVQAKHLWATGLIDDVIIGNAYASEEELEKLGNLNRYMLQLKVHFVDEATEVEKRATLQELHVRRGDITEYMVRSTEVRKKYKDYDFPVRESVLQERGQVVIGNNSFGKYKGELQIILKEMPIDERKNIVGTIAEEELFLLDYVGAWTQFTCVE
  protein production: not failed

## MERKNNQRSDEDEERKEQSEEERVERKEEAPRKRQKQDDVSTGKETLSKKRKIIDNDGDNVPTRSNKQSRVDDADNVDGPPVGDNDDHPTAQRKSKRGTIPSIHTQPPFTAEKKKHPILYPFAKVDASRVEKLAEGKKSRKCK
  protein production: failed
